Measured values reported in PMC10380284, “Investigating the Prevalence of RNA-Binding Metabolic Enzymes in E. coli” (International Journal of Molecular Sciences, 2023).

What was measured:
[1] = molecular target: T1, quinone oxidoreductase (QorA) (Escherichia coli, UniProt P28304); experiment: NMR shift experiment; also competition with RNA in EMSA and MST; assay type: binding; details: 10-20 mM NADPH in the EMSA / MST competition with yffO mRNA fragment; pH 7.5
T1 construct: full-length ORF from ASKA library (pCA24N), N-terminal His-tag, expressed in E. coli BL21-Gold (DE3), IMAC and size exclusion
T1 sequence (P28304 1-327): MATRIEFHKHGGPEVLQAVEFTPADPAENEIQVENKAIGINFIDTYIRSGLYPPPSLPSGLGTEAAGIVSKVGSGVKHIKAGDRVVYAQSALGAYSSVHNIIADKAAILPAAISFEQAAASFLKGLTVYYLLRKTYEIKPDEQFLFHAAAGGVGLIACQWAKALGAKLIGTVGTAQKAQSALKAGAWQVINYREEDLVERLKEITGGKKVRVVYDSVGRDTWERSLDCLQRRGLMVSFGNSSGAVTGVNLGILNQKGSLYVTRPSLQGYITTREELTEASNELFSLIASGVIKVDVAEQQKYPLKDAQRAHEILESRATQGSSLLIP

MS2 phage coat protein = MS2 phage coat protein (bacteriophage MS2, UniProt P03612 2-130); experiment: EMSA; 0.34-34 uM protein, 700 nM RNA; 50 mM Tris (HEPES for PykF), 80 mM NaCl, 10 mM KCl, 0.8 mM MgCl2, 0.5 mM DTT, pH 7.5, 30 min at 37 C (EMSA); MST same buffer + 0.05% Tween-20; details: protein: recombinant; chain copies: 2; label: 5' 32P; hairpin
[2] = molecular target: T2, Quinone oxidoreductase QorA (Escherichia coli K12, UniProt P28304 1-327); experiment: MST; 0.05% Tween-20; 10 nM RNA; 50 mM Tris (HEPES for PykF), 80 mM NaCl, 10 mM KCl, 0.8 mM MgCl2, 0.5 mM DTT, pH 7.5, 30 min at 37 C (EMSA); MST same buffer + 0.05% Tween-20; details: protein: recombinant; tags: N-terminal His (pCA24N, ASKA); label: Cy5
T2 sequence: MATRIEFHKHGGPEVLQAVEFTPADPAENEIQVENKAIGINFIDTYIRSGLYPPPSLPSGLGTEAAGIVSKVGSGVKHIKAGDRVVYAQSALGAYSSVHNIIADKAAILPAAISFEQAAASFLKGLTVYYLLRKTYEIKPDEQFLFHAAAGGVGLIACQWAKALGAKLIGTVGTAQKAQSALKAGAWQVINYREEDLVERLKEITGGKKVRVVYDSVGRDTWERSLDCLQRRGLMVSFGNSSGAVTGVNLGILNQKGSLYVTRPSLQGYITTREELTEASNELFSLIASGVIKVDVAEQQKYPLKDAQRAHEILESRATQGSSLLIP

[3] = molecular target: T3, Phosphoglycerate kinase Pgk (Escherichia coli K12, UniProt P0A799 1-387); experiment: EMSA; 30 uM Pgk, 7 uM RNA; stronger than hairpins; 50 mM Tris (HEPES for PykF), 80 mM NaCl, 10 mM KCl, 0.8 mM MgCl2, 0.5 mM DTT, pH 7.5, 30 min at 37 C (EMSA); MST same buffer + 0.05% Tween-20; details: protein: recombinant; tags: N-terminal His (pCA24N, ASKA); label: 5' 32P; linear
T3 sequence: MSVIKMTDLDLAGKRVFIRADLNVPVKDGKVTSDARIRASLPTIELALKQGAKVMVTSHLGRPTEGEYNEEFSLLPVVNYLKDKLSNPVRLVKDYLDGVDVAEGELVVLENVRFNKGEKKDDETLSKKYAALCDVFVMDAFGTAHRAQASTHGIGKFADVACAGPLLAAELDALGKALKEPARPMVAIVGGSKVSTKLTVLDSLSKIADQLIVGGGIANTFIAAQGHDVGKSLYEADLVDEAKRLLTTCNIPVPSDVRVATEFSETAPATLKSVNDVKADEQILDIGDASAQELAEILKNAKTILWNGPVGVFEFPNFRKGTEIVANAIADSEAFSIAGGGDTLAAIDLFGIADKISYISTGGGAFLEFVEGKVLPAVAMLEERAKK

[4] = molecular target: T2, Quinone oxidoreductase QorA; experiment: EMSA; 350 nM RNA; 50 mM Tris (HEPES for PykF), 80 mM NaCl, 10 mM KCl, 0.8 mM MgCl2, 0.5 mM DTT, pH 7.5, 30 min at 37 C (EMSA); MST same buffer + 0.05% Tween-20; details: protein: recombinant; tags: N-terminal His (pCA24N, ASKA); label: 5' 32P

Chain of MS2 phage coat protein (P03612 2-130): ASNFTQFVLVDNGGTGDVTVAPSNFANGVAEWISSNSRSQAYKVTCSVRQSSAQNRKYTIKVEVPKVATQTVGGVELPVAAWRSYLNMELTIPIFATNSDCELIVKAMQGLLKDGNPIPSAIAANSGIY

For `NC(=O)C1=CN([C@@H]2O[C@H](COP(=O)(O)OP(=O)(O)OC[C@H]3O[C@@H](n4cnc5c(N)ncnc54)[C@H](OP(=O)(O)O)[C@@H]3O)[C@@H](O)[C@H]2O)C=CC1` [NADPH], the “NMR shift experiment; also competition with RNA in EMSA and MST” value [1] was “NMR shift experiments that revealed larger peak shifts for the QorA-NADPH complex”.

GCACGCGUAUUCACUGAGCAUCAGCCAGACUGUGU (ssRNA) [rffG mRNA fragment]: binds (MS2 phage coat protein).

Molecule GGAGCAUAUGGACUUCAGGGAAGGGAU (ssRNA) [Cy5-yffO mRNA fragment] has a Kd [2] of about 7 µM.

AGGACAAAAACAA (ssRNA) [A-rich linear control RNA]: binds [3].

Molecule GGAGCAUAUGGACUUCAGGGAAGGGAU (ssRNA) [yffO mRNA fragment, 27 nt] has a Kd [4] of about 7 µM.
